± gives the standard deviation of the averaged measurements.

Experimental findings from the supplement of paper PMC10126150 are described below.

The data set deals with ATP. Kind of data set: switch fluorescence ratio, 500 uM ATP over buffer (Cy3 cluster intensity, sum of 5 cycles each) (fold (ratio)); higher = stronger signal-on switching upon ATP binding; sequences stand for … in TCGTCGGCAGCGTCAGATGTGTATAAGAGACAGTTTTTTTTTTTTTTTTTTTTTTTTT…TC. Conditions: aptamer strand: ATP DNA aptamer (quencher-CACCTGGGGGAGTATTGCGGAGGAAGG + anchor), 100 nM annealed; ATP concentration: 500 uM. Summed up:
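Clusters carrying Cy3-labelled switching strands on a modified Illumina MiSeq flow-cell were annealed to 100 nM quencher-labelled ATP aptamer and imaged in selection buffer. They were imaged again after 15 min with 500 uM ATP at 22 °C, over five buffer/ATP cycles with NaOH stripping and re-annealing in between. For each cluster, the fluorescence ratio is the summed Cy3 intensity of the target cycles divided by that of the buffer cycles, averaged per switch-domain sequence. Clusters outside 100-1000 RFU were left out.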
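Also: ATP exposure 15 min at 22 °C before imaging.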

CTTATTAATC: the switch fluorescence ratio amounted to 1.01 ± 0.028.

CTTATTCGCC: the switch fluorescence ratio was 1.05 ± 0.099.

With CTTATTTGAT, the switch fluorescence ratio was 0.975 ± 0.01.

As for CTTCACATCG, the switch fluorescence ratio worked out at 1.03 ± 0.041.

As for CTTCGCTCGA, the switch fluorescence ratio stood at 1.35 ± 0.07.

CTTCGGGGGT: the switch fluorescence ratio stood at 1.02 ± 0.019.

With CTTCGTACGA, the switch fluorescence ratio stood at 1.03 ± 0.043.

In the case of CTTCTAGCTT, the switch fluorescence ratio stood at 0.97 ± 0.058.

In the case of CTTCTCAGTA, the switch fluorescence ratio was 1.03 ± 0.048.

Regarding CTTCTTAGTT, the switch fluorescence ratio was found to be 0.976 ± 0.019.

For the sequence CTTCTTTGGG, the switch fluorescence ratio is 1 ± 0.024.

CTTCTTTTCA: the switch fluorescence ratio was determined as 1.1 ± 0.064.

On to CTTGAAGGTG, for which the switch fluorescence ratio worked out at 1.595 ± 0.015.

Regarding CTTGACAGGT, the switch fluorescence ratio came out at 1.023 ± 0.0058.

CTTGACGCCG: the switch fluorescence ratio was 1.09 ± 0.13.

Turning to CTTGAGGGGT, the switch fluorescence ratio worked out at 0.971 ± 0.0099.

Turning to CTTGATACTC, the switch fluorescence ratio worked out at 1.18 ± 0.032.

For CTTGATATTT, the switch fluorescence ratio was determined as 0.993 ± 0.015.

With CTTGATTATA, the switch fluorescence ratio was found to be 1.007 ± 0.0061.

CTTGCCTGGG: the switch fluorescence ratio came to 0.96 ± 0.028.

Take CTTGCGGTTC: the switch fluorescence ratio amounted to 1.11 ± 0.05.

On to CTTGGATGTT, for which the switch fluorescence ratio came out at 0.987 ± 0.024.

On to CTTGGATTCC, for which the switch fluorescence ratio was 1 ± 0.021.

Turning to CTTGGGAGGC, the switch fluorescence ratio came to 1.02 ± 0.067.

For CTTGGGAGGG, the switch fluorescence ratio was 0.992 ± 0.029.

For the sequence CTTGGGCCAC, the switch fluorescence ratio was found to be 1 ± 0.032.

As for CTTGGGCCGC, the switch fluorescence ratio is 1.13 ± 0.048.

Take CTTGGGCGGA: the switch fluorescence ratio was determined as 1.027 ± 0.008.

Turning to CTTGGGGGAT, the switch fluorescence ratio is 0.979 ± 0.038.

For the sequence CTTGGGGGCC, the switch fluorescence ratio turned out to be 0.986 ± 0.012.

Turning to CTTGGGGGGG, the switch fluorescence ratio is 0.991 ± 0.02.

CTTGGGTAGG: the switch fluorescence ratio was found to be 1.01 ± 0.035.

On to CTTGGTCCTG, for which the switch fluorescence ratio amounted to 0.9669 ± 0.007.

As to CTTGGTGCTT, the switch fluorescence ratio was found to be 0.974 ± 0.021.

CTTGGTTTTT: the switch fluorescence ratio amounted to 1.01 ± 0.022.

Take CTTGTATCGG: the switch fluorescence ratio came to 1 ± 0.056.

Consider CTTGTCGATT, for which the switch fluorescence ratio was determined as 0.999 ± 0.04.

As to CTTGTGAACG, the switch fluorescence ratio is 0.993 ± 0.036.

For the sequence CTTGTGGCTG, the switch fluorescence ratio is 1.031 ± 0.0033.

On to CTTGTGGGGT, for which the switch fluorescence ratio came out at 0.978 ± 0.021.

Take CTTGTTCATG: the switch fluorescence ratio turned out to be 1 ± 0.017.

With CTTTAAGTCT, the switch fluorescence ratio is 0.994 ± 0.039.

For the sequence CTTTAAGTTG, the switch fluorescence ratio is 1.03 ± 0.029.

As to CTTTAATGCC, the switch fluorescence ratio stood at 0.999 ± 0.021.

For CTTTACCTAC, the switch fluorescence ratio worked out at 1.327 ± 0.0078.

For the sequence CTTTACTTCC, the switch fluorescence ratio worked out at 2.1 ± 0.024.

Turning to CTTTACTTCG, the switch fluorescence ratio came out at 1.07 ± 0.027.

With CTTTATAGGC, the switch fluorescence ratio worked out at 1.04 ± 0.017.

Regarding CTTTATATAC, the switch fluorescence ratio turned out to be 1.35 ± 0.025.

With CTTTATGCTG, the switch fluorescence ratio is 1.05 ± 0.047.

On to CTTTATTTAA, for which the switch fluorescence ratio was 1.02 ± 0.02.

Consider CTTTATTTGT, for which the switch fluorescence ratio amounted to 1.001 ± 0.009.

Consider CTTTATTTTC, for which the switch fluorescence ratio came to 1.03 ± 0.039.

Take CTTTCCGTTC: the switch fluorescence ratio came out at 1.2 ± 0.092.

With CTTTCGATAG, the switch fluorescence ratio came to 1.06 ± 0.049.

In the case of CTTTCTTGCT, the switch fluorescence ratio stood at 0.975 ± 0.021.

Take CTTTGAGC: the switch fluorescence ratio came out at 1 ± 0.064.

Take CTTTGGAATA: the switch fluorescence ratio is 1.07 ± 0.041.

Regarding CTTTGGATCA, the switch fluorescence ratio was determined as 0.9836 ± 0.0055.

Consider CTTTGGGGGA, for which the switch fluorescence ratio came out at 0.983 ± 0.023.

Take CTTTGGGGGC: the switch fluorescence ratio stood at 0.9593 ± 0.0087.

For CTTTGGTTG, the switch fluorescence ratio was determined as 1.01 ± 0.016.

Turning to CTTTGTCGAG, the switch fluorescence ratio was 1 ± 0.019.

As for CTTTGTTTGA, the switch fluorescence ratio stood at 0.976 ± 0.0076.

Take CTTTTAACGA: the switch fluorescence ratio came out at 1.01 ± 0.03.

CTTTTAATGG: the switch fluorescence ratio was 1.03 ± 0.068.

Regarding CTTTTAATTG, the switch fluorescence ratio is 0.977 ± 0.037.

As for CTTTTACATA, the switch fluorescence ratio came out at 1.03 ± 0.018.

For CTTTTAGGGT, the switch fluorescence ratio came out at 0.996 ± 0.024.

For CTTTTAGGTA, the switch fluorescence ratio was found to be 0.9425 ± 0.0069.

For CTTTTGGGGT, the switch fluorescence ratio is 0.991 ± 0.01.

For CTTTTTAGAG, the switch fluorescence ratio was determined as 0.994 ± 0.015.

For the sequence CTTTTTAGTG, the switch fluorescence ratio was 0.982 ± 0.023.

Take CTTTTTGGGT: the switch fluorescence ratio was 0.968 ± 0.028.

For the sequence CTTTTTTCGA, the switch fluorescence ratio amounted to 1.04 ± 0.039.

Turning to CTTTTTTTTA, the switch fluorescence ratio amounted to 0.985 ± 0.021.

GAAAAAAAAT: the switch fluorescence ratio stood at 1 ± 0.067.

For the sequence GAAAAAATGT, the switch fluorescence ratio is 0.967 ± 0.028.

GAAAAAGTGC: the switch fluorescence ratio was 0.989 ± 0.095.

For the sequence GAAAAGGGGA, the switch fluorescence ratio worked out at 1.27 ± 0.48.

Take GAAAAGGGTG: the switch fluorescence ratio worked out at 0.99 ± 0.051.

For the sequence GAAAAGTGAG, the switch fluorescence ratio worked out at 0.975 ± 0.016.

As for GAAAATGCAG, the switch fluorescence ratio was found to be 0.999 ± 0.062.

For GAAACCAGAG, the switch fluorescence ratio came to 1.39 ± 0.014.

For GAAACGCGTA, the switch fluorescence ratio came to 0.994 ± 0.021.

For GAAACGTAAT, the switch fluorescence ratio was 1.19 ± 0.037.

On to GAAACTAATG, for which the switch fluorescence ratio worked out at 1.01 ± 0.013.

For GAAACTAGAG, the switch fluorescence ratio came out at 0.986 ± 0.0047.

For GAAACTAGTG, the switch fluorescence ratio was 0.996 ± 0.015.

Regarding GAAAGACGCT, the switch fluorescence ratio is 1.15 ± 0.3.

On to GAAAGAGAGG, for which the switch fluorescence ratio turned out to be 1.003 ± 0.0076.

With GAAAGAGATG, the switch fluorescence ratio was found to be 1.003 ± 0.008.

In the case of GAAAGAGGGG, the switch fluorescence ratio worked out at 0.989 ± 0.021.

Turning to GAAAGGCTCT, the switch fluorescence ratio was determined as 0.9793 ± 0.0031.

As for GAAAGGGGGT, the switch fluorescence ratio stood at 0.991 ± 0.027.

Turning to GAAAGGGTAC, the switch fluorescence ratio is 1.56 ± 0.65.

Regarding GAAAGGTATT, the switch fluorescence ratio came out at 0.975 ± 0.021.

Regarding GAAAGGTCTA, the switch fluorescence ratio is 0.987 ± 0.057.

For the sequence GAAAGGTTTT, the switch fluorescence ratio is 0.9729 ± 0.0055.

As for GAAAGTGGGA, the switch fluorescence ratio worked out at 0.988 ± 0.025.

GAAAGTTCAG: the switch fluorescence ratio was 1.002 ± 0.0098.

Regarding GAAATAAGGC, the switch fluorescence ratio was determined as 1.01 ± 0.013.

Regarding GAAATAGATC, the switch fluorescence ratio is 0.953 ± 0.07.

For GAAATCCAGG, the switch fluorescence ratio was 1.297 ± 0.0087.

As for GAAATCGGA, the switch fluorescence ratio came out at 0.993 ± 0.016.

GAAATGAGGG: the switch fluorescence ratio came to 0.977 ± 0.047.

Turning to GAAATGCGCA, the switch fluorescence ratio came out at 1.08 ± 0.17.

Take GAAATGGGAG: the switch fluorescence ratio was determined as 0.998 ± 0.045.

Take GAAATGGGGA: the switch fluorescence ratio stood at 1 ± 0.017.

Consider GAAATGGGTT, for which the switch fluorescence ratio is 0.957 ± 0.063.

As to GAAATGTATT, the switch fluorescence ratio stood at 1.04 ± 0.063.

As to GAAATTAGTG, the switch fluorescence ratio amounted to 1.01 ± 0.039.

Regarding GAAATTATCA, the switch fluorescence ratio worked out at 0.977 ± 0.025.

On to GAAATTATCG, for which the switch fluorescence ratio came out at 0.9988 ± 0.0034.

GAAATTGCGG: the switch fluorescence ratio stood at 0.989 ± 0.024.

As to GAAATTGTTT, the switch fluorescence ratio is 0.991 ± 0.015.

As for GAAATTTAGA, the switch fluorescence ratio came to 1.01 ± 0.028.

As for GAAATTTTTG, the switch fluorescence ratio amounted to 0.985 ± 0.029.

On to GAACATGTAT, for which the switch fluorescence ratio worked out at 0.987 ± 0.026.

Regarding GAACATTGAG, the switch fluorescence ratio is 1.019 ± 0.0034.
